{"source": "patent US9969812B2", "about": "“Anti human Notch4 antibody” (Eisai R&D Management Co., Ltd., priority 2015, dated 2018)", "molecules": {"B1": {"name": "Antibody D: humanized anti-human Notch4 antibody, heavy chain variable region HK3, light chain variable region L5, C-terminal Lys deleted (antibody)", "heavy": "EVQLVESGGGLVQPGGSLRLSCAASGFTFSSYGMSWVRQAPGKGLELVATINSNGGRTYYPDSVKGRFTISRDNSKNTLYLQMGSLKAEDMAVYYCARDQGFAYWGQGTLVTVSSASTKGPSVFPLAPCSRSTSESTAALGCLVKDYFPEPVTVSWNSGALTSGVHTFPAVLQSSGLYSLSSVVTVPSSNFGTQTYTCNVDHKPSNTKVDKTVERKCCVECPPCPAPPAAAPSVFLFPPKPKDTLMISRTPEVTCVVVDVSHEDPEVQFNWYVDGVEVHNAKTKPREEQFNSTFRVVSVLTVVHQDWLNGKEYKCKVSNKGLPAPIEKTISKTKGQPREPQVYTLPPSREEMTKNQVSLTCLVKGFYPSDIAVEWESNGQPENNYKTTPPMLDSDGSFFLYSKLTVDKSRWQQGNVFSCSVMHEALHNHYTQKSLSLSPG", "light": "DIQMTQSPSSLSASVGDRVTITCKASQDVGTAVAWYQQKPGKSPKLLIYWASTRHTGVPSRFSGSGSGTDFTLTISSLQPEDVATYFCQQYSSYPWTFGQGTKVEIKRTVAAPSVFIFPPSDEQLKSGTASVVCLLNNFYPREAKVQWKVDNALQSGNSQESVTEQDSKDSTYSLSSTLTLSKADYEKHKVYACEVTHQGLSSPVTKSFNRGEC"}}, "molecular_target": "T1, Human Notch4-NRR Fusion Protein (Homo sapiens, UniProt Q99466)", "T1 construct": "Human Notch4-NRR domain Fc fusion proteins were expressed with a CHO cell line; Fc; made in house; host or cells: CHO cell line (antigen captured from culture supernatant)", "T1 sequence (Q99466 1046-1445 limits assumed)": "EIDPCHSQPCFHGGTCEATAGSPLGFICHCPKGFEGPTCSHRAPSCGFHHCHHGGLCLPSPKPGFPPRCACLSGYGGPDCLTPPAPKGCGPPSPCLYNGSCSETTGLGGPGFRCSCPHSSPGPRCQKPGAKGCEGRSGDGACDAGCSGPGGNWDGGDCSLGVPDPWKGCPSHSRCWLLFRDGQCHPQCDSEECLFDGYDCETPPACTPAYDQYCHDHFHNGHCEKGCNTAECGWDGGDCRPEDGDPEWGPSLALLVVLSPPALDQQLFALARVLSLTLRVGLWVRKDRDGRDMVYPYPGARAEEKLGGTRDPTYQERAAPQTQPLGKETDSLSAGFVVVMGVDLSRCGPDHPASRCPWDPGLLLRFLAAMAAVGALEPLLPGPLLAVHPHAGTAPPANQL", "experiment": "Kinetic analysis, captured Human Notch4-NRR Fc fusion protein, humanized antibody injected", "type": "binding", "details": "Table 30, Human Notch4-NRR Fc fusion", "description": "Kinetic analysis of further anti-Notch4 inhibitory humanized antibodies was carried out as follows. Human Notch4-NRR domain Fc fusion proteins were expressed with a CHO cell line. The antigen in the culture supernatant was captured by the anti-human Notch4 antibody fixed on a CM5 sensor chip that recognizes different epitopes of human Notch4. The humanized anti-human Notch4 antibody was then injected onto the sensor chip at various concentrations. The interaction and disassociation constants thereof were calculated according to manufacturer's instructions.\nIn the table below, e.g. the description “HK2L3 (Lys-)” means that the heavy chain variable region of the humanized anti-human Notch4 antibody employed in the experiment is the heavy chain variable region of the humanized anti-human Notch4 antibody heavy chain HK2 in Example 1, light chain variable region is the light chain variable region of the humanized anti-human Notch4 antibody light chain L3 in Example 1, and lysine (Lys) located at the C-terminal of the heavy chain of a common human antibody is deleted in this antibody. Those without the description “(Lys-)” mean that Lys located at the C-terminal of the heavy chain of the human antibody is not deleted."}
{"molecule": "B1", "values": [{"measurement": "Rmax1 (RU)", "result": 37, "unit": "RU"}, {"measurement": "ka", "result": "1.82e+06", "unit": "M⁻¹ s⁻¹"}, {"measurement": "kd", "result": 0.000863, "unit": "s⁻¹"}]}
